Laboratory results reported in patent US20250154231A1.
Like-named read-outs stand apart in the source and are kept apart here.

What was measured:
Test in all cases: cell-based or functional assay
[1] = target: SARS-CoV-2 spike (S) protein, Omicron BA.2 (SARS-CoV-2) (UniProt P0DTC2)
[2] = target: SARS-CoV-2 spike (S) protein, Omicron BA.2.75 (SARS-CoV-2) (UniProt P0DTC2)
[3] = target: SARS-CoV-2 spike (S) protein, Omicron BA.3 (SARS-CoV-2) (UniProt P0DTC2)
[4] = target: SARS-CoV-2 Beta spike (S) protein (SARS-CoV-2) (UniProt P0DTC2)
[5] = target: SARS-CoV-2 Victoria spike (S) protein (SARS-CoV-2) (UniProt P0DTC2)
[6] = target: SARS-CoV-2 spike (S) protein, Victoria strain (SARS-CoV-2) (UniProt P0DTC2)
[7] = target: SARS-CoV-2 Omicron BA.2 spike (S) protein (SARS-CoV-2) (UniProt P0DTC2)
[8] = target: SARS-CoV-2 spike (S) protein, Omicron BA.2 (SARS-CoV-2) (UniProt P0DTC2); remark: listed apart in the source
[9] = target: SARS-CoV-2 spike (S) protein, Omicron BA.4/5 (SARS-CoV-2) (UniProt P0DTC2)
[10] = target: SARS-CoV-2 spike (S) protein, Omicron BA.1 (SARS-CoV-2) (UniProt P0DTC2)
[11] = target: SARS-CoV-2 Omicron BA.1 spike (S) protein of the live isolate (SARS-CoV-2) (UniProt P0DTC2)
[12] = target: SARS-CoV-2 Gamma spike (S) protein (SARS-CoV-2) (UniProt P0DTC2)
[13] = target: SARS-CoV-2 spike (S) protein, Omicron BA.1.1 (SARS-CoV-2) (UniProt P0DTC2)
[14] = target: SARS-CoV-2 Delta spike (S) protein (SARS-CoV-2) (UniProt P0DTC2)
[15] = target: SARS-CoV-2 Alpha spike (S) protein (SARS-CoV-2) (UniProt P0DTC2)
[16] = target: SARS-CoV-2 Omicron BA.1.1 spike (S) protein (SARS-CoV-2) (UniProt P0DTC2)
[17] = target: SARS-CoV-2 spike (S) protein, Omicron BA.4.6 (SARS-CoV-2) (UniProt P0DTC2)
[18] = target: SARS-CoV-2 spike (S) protein, Victoria strain (SARS-CoV-2) (UniProt P0DTC2); remark: listed apart in the source
[19] = target: SARS-CoV-2 spike (S) protein, Omicron BA.2.75.2 (SARS-CoV-2) (UniProt P0DTC2)
[20] = target: SARS-CoV-2 spike (S) protein, Omicron BJ.1 (SARS-CoV-2) (UniProt P0DTC2)
[21] = target: SARS-CoV-2 spike (S) protein, Omicron BA.2.3.20 (SARS-CoV-2) (UniProt P0DTC2)
[22] = target: SARS-CoV-2 spike (S) protein, Omicron BA.2 (SARS-CoV-2) (UniProt P0DTC2); remark: listed apart in the source
[23] = target: SARS-CoV-2 spike (S) protein, Omicron BA.4/5 (SARS-CoV-2) (UniProt P0DTC2); remark: listed apart in the source
[24] = target: SARS-CoV-2 spike (S) protein, Omicron BA.2.75 (SARS-CoV-2) (UniProt P0DTC2); remark: listed apart in the source
[25] = target: SARS-CoV-2 spike (S) protein, Omicron BA.4.6 (SARS-CoV-2) (UniProt P0DTC2); remark: listed apart in the source
[26] = target: SARS-CoV-2 spike (S) protein, Omicron BA.2 (SARS-CoV-2) (UniProt P0DTC2); remark: listed apart in the source
[27] = target: SARS-CoV-2 spike (S) protein, Omicron BA.2.75 (SARS-CoV-2) (UniProt P0DTC2); remark: listed apart in the source
[28] = target: SARS-CoV-2 Omicron BA.3 spike (S) protein (SARS-CoV-2) (UniProt P0DTC2)
[29] = target: SARS-CoV-2 Omicron BA.2 spike (S) protein, pseudovirus construct (SARS-CoV-2) (UniProt P0DTC2)
[30] = target: SARS-CoV-2 Gamma (P.1) spike (S) protein (SARS-CoV-2) (UniProt P0DTC2)
[31] = target: SARS-CoV-2 Omicron BA.4/5 spike (S) protein (SARS-CoV-2) (UniProt P0DTC2)
[32] = target: SARS-CoV-2 Omicron (BA.1) spike (S) protein, live virus isolate (SARS-CoV-2) (UniProt P0DTC2)
[33] = target: SARS-CoV-2 Omicron BA.3 spike (S) protein, pseudovirus construct (SARS-CoV-2) (UniProt P0DTC2)
[34] = target: SARS-CoV-2 spike (S) protein, Omicron BA.2.75 (SARS-CoV-2) (UniProt P0DTC2); remark: listed apart in the source
[35] = target: SARS-CoV-2 Omicron BA.1 spike (S) protein, pseudovirus construct (SARS-CoV-2) (UniProt P0DTC2)
[36] = target: SARS-CoV-2 Beta (B.1.351) spike (S) protein (SARS-CoV-2) (UniProt P0DTC2)
[37] = target: SARS-CoV-2 Omicron BA.1 spike (S) protein of the pseudovirus (SARS-CoV-2) (UniProt P0DTC2)
[38] = target: SARS-CoV-2 Alpha (B.1.1.7) spike (S) protein (SARS-CoV-2) (UniProt P0DTC2)
[39] = target: SARS-CoV-2 Omicron BA.1.1 spike (S) protein, pseudovirus construct (SARS-CoV-2) (UniProt P0DTC2)

Sequence of Omi-32 (antibody) (VH): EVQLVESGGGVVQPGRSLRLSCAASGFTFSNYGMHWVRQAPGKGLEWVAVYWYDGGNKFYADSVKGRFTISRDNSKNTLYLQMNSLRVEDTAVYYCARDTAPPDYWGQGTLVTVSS
Sequence of Omi-32 (antibody) (VL): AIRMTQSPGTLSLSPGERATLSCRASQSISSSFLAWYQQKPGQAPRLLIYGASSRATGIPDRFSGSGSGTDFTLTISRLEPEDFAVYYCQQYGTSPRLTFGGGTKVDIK
Sequence of AZD8895 (antibody) (VH): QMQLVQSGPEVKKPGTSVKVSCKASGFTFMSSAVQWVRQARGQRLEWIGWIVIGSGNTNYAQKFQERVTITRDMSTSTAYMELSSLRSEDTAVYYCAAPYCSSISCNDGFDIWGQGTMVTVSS
Sequence of AZD8895 (antibody) (VL): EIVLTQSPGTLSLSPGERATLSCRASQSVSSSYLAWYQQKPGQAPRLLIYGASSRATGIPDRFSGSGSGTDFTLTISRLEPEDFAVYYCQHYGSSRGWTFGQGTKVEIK

Substance: AZD8895 (antibody)
- pseudovirus neutralisation IC50 [1]: 1.99 µg/mL
- pseudovirus neutralisation IC50 [2]: 0.008 µg/mL
- IC50, pseudoviral neutralization [3]: > 10 µg/mL
- pseudovirus neutralisation IC50 [3]: > 10 µg/mL
- IC50, authentic virus neutralization [4]: 0.046 µg/mL
- IC50, authentic virus neutralization [5]: 0.005 µg/mL
- IC50, pseudoviral neutralization [6]: 0.001 µg/mL
- pseudovirus neutralisation IC50 [6]: 0.001 µg/mL
- IC50, authentic virus neutralization [7]: 7.7 µg/mL
- IC50, pseudoviral neutralization [8]: 1.33 µg/mL
- pseudovirus neutralisation IC50 [8]: 1.33 µg/mL
- IC50, pseudoviral neutralization [9]: > 10 µg/mL
- pseudovirus neutralisation IC50 [9]: > 10 µg/mL
- IC50, pseudoviral neutralization [10]: 0.246 µg/mL
- pseudovirus neutralisation IC50 [10]: 0.246 µg/mL
- IC50, authentic virus neutralization [11]: 1.15 µg/mL
- IC50, authentic virus neutralization [12]: 0.046 µg/mL
- IC50, pseudoviral neutralization [13]: 0.1 µg/mL
- pseudovirus neutralisation IC50 [13]: 0.1 µg/mL
- IC50, authentic virus neutralization [14]: 0.003 µg/mL
- IC50, authentic virus neutralization [15]: 0.011 µg/mL
- IC50, authentic virus neutralization [16]: 6.08 µg/mL
- IC50, pseudoviral neutralization [17]: > 10 µg/mL
- IC50, pseudoviral neutralization [18]: 0.001 µg/mL
- IC50, pseudoviral neutralization [19]: > 10 µg/mL
- IC50, pseudoviral neutralization [20]: 0.114 µg/mL
- IC50, pseudoviral neutralization [21]: 0.007 µg/mL
- IC50, pseudoviral neutralization [22]: 1.33 µg/mL
- IC50, pseudoviral neutralization [23]: > 10 µg/mL
- IC50, pseudoviral neutralization [24]: 0.008 µg/mL
- IC50, pseudoviral neutralization [25]: > 10 µg/mL

Substance: Omi-32 (antibody)
- pseudovirus neutralisation IC50 [26]: 2.61 µg/mL
- pseudovirus neutralisation IC50 [27]: 0.354 µg/mL
- pseudovirus neutralisation IC50 [3]: 1.02 µg/mL
- IC50, authentic virus neutralization [4]: 0.46 µg/mL
- IC50, pseudovirus neutralization [28]: 1.02 µg/mL
- Authentic virus-IC50 [5]: 0.032 µg/mL
- IC50, authentic virus neutralization [5]: 0.032 µg/mL
- IC50, pseudovirus neutralization [5]: 0.01 µg/mL
- Pseudovirus - IC50 [5]: 0.01 µg/mL
- pseudovirus neutralisation IC50 [6]: 0.01 µg/mL
- Pseudovirus - IC50 [29]: 2.68 µg/mL
- IC50, authentic virus neutralization [7]: 1.9 µg/mL
- IC50, pseudovirus neutralization [7]: 2.68 µg/mL
- Authentic virus-IC50 [30]: 0.43 µg/mL
- pseudovirus neutralisation IC50 [8]: 2.68 µg/mL
- IC50, pseudovirus neutralization [31]: 0.035 µg/mL
- pseudovirus neutralisation IC50 [9]: 0.035 µg/mL
- Authentic virus-IC50 [32]: 0.024 µg/mL
- pseudovirus neutralisation IC50 [10]: 0.017 µg/mL
- Pseudovirus - IC50 [33]: 1.02 µg/mL
- IC50, authentic virus neutralization [11]: 0.024 µg/mL
- IC50, authentic virus neutralization [12]: 0.43 µg/mL
- pseudovirus neutralisation IC50 [13]: > 10 µg/mL
- pseudovirus neutralisation IC50 [34]: 0.354 µg/mL
- Authentic virus-IC50 [14]: 0.012 µg/mL
- IC50, authentic virus neutralization [14]: 0.012 µg/mL
- Pseudovirus - IC50 [35]: 0.017 µg/mL
- IC50, authentic virus neutralization [15]: 0.102 µg/mL
- IC50, authentic virus neutralization [16]: 4.64 µg/mL
- IC50, pseudovirus neutralization [16]: > 10 µg/mL
- Authentic virus-IC50 [36]: 0.46 µg/mL
- IC50, pseudovirus neutralization [37]: 0.017 µg/mL
- Authentic virus-IC50 [38]: 0.102 µg/mL
- Pseudovirus - IC50 [39]: > 10 µg/mL
- IC50, pseudoviral neutralization [18]: 0.01 µg/mL
- IC50, pseudoviral neutralization [19]: > 10 µg/mL
- IC50, pseudoviral neutralization [20]: > 10 µg/mL
- IC50, pseudoviral neutralization [21]: > 10 µg/mL
- IC50, pseudoviral neutralization [22]: 2.68 µg/mL
- IC50, pseudoviral neutralization [23]: 0.035 µg/mL
- IC50, pseudoviral neutralization [24]: 0.354 µg/mL
- IC50, pseudoviral neutralization [25]: > 10 µg/mL
